Experimental data published in patent US20130034568A1 (UNIVERSITY OF LOUISVILLE RESEARCH FOUNDATION, published 2013).

B1: C5a receptor (C5aR; CD88), mouse, on peritoneal macrophages (receptor, UniProt P30993 1-351, looked up)
chain: MDPIDNSSFEINYDHYGTMDPNIPADGIHLPKRQPGDVAALIIYSVVFLVGVPGNALVVWVTAFEARRAVNAIWFLNLAVADLLSCLALPVLFTTVLNHNYWYFDATACIVLPSLILLNMYASILLLATISADRFLLVFKPIWCQKVRGTGLAWMACGVAWVLALLLTIPSFVYREAYKDFYSEHTVCGINYGGGSFPKEKAVAILRLMVGFVLPLLTLNICYTFLLLRTWSRKATRSTKTLKVVMAVVICFFIFWLPYQVTGVMIAWLPPSSPTLKRVEKLNSLCVSLAYINCCVNPIIYVMAGQGFHGRLLRSLPSIIRNALSEDSVGRDSKTFTPSTTDTSTRKSQAV
notes: whole, on cells; In FRET it was detected with a dye-labelled mouse-specific monoclonal antibody (clone 20/70); also called complement C5a receptor

Assays:
[1] = target: C5a receptor (C5aR; CD88), mouse, on peritoneal macrophages (mouse) (UniProt P30993); test: cell-based or functional assay
[2] = target: T1, TLR5, mouse, on peritoneal macrophages (mouse, UniProt Q9JLF7 27-859); test: FRET, acceptor photobleaching, labelled antibodies on P. gingivalis-stimulated mouse macrophages
T1 construct: whole, on cells; Negative control in FRET; detected with antibody clone 85B152.5; also called Toll-like receptor 5
Method: (§1) Upon stimulation for 10 min at 37° C. with P. gingivalis, mouse macrophages were labeled with a mixture of Cy3-conjugated (donor) and Cy5-conjugated (acceptor) antibodies, as indicated in FIG. 4I. In additional experiments shown in FIG. 4I, FITC-labeled P. gingivalis was used as donor and TRITC-labeled receptors served as acceptors. The cells were washed and fixed, and energy transfer between various donor-acceptor pairs was calculated from the increase in donor fluorescence after acceptor photobleaching (REF 9, 14). […] The conjugation of antibodies to Cy3 or Cy5 was performed using kits from Amersham Biosciences.

[3] = target: T2, CXC-chemokine receptor 4 (CXCR4), mouse, on peritoneal macrophages (mouse, UniProt P70658 1-359); test: FRET, acceptor photobleaching, labelled antibodies on P. gingivalis-challenged mouse macrophages
T2 construct: whole, on cells
Method: as §1

T2 sequence (P70658 whole entry): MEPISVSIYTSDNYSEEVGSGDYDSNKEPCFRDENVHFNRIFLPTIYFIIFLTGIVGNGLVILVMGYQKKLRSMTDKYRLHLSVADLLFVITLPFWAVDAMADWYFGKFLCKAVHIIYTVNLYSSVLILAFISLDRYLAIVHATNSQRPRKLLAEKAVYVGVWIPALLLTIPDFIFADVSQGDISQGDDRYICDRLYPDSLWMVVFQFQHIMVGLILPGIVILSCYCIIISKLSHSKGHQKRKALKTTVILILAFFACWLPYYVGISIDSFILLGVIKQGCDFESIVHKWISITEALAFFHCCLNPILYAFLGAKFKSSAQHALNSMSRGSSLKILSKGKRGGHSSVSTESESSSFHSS
T1 sequence (Q9JLF7 27-859): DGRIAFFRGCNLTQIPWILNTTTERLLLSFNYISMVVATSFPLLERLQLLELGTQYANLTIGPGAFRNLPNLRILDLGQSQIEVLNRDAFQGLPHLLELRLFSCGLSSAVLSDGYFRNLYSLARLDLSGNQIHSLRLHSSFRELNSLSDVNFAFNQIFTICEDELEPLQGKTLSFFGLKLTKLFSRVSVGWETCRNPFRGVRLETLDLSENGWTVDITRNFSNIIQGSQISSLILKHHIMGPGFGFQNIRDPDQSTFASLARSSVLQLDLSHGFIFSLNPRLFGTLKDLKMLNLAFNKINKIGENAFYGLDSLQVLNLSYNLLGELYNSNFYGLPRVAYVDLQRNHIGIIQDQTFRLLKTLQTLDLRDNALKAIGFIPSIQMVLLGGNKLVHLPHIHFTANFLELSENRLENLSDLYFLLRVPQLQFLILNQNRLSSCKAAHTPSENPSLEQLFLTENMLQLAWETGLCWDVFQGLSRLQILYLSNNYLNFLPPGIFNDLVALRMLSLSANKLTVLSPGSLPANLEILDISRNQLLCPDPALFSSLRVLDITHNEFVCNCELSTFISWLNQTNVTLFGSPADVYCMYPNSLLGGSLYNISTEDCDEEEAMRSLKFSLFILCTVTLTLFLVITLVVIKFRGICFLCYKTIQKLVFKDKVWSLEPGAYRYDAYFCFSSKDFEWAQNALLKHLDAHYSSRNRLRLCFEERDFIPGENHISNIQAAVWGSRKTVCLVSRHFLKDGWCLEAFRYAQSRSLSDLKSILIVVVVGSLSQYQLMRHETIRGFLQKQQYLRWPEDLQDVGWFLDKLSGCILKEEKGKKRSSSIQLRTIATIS

Molecule | intracellular cAMP in P. gingivalis-stimulated mouse macrophages [1] | binding result [2] | binding result [3]
Mouse C5a (from UniProt P06684 679-755) (ligand) | > 3 fold |  | 
B1 |  | no binding | binds
